From patent US20230265151A1, “GIP/GLP1 CO-AGONIST COMPOUNDS” (priority 2020, published 2023)
Where a chain is given by its changes, count along the chain named. *1 amine or outer side, *2 acyl side, *3 side chain or, on linkers, in order; H or OH if unused. Where no end group is shown, it is not given here. Side-chain parts run from the residue outwards. [ ]: non-standard residue; d: D form. The star is where a group is joined. αMePhe(2-F) = C[C@](N)(Cc1ccccc1F)C(=O)O; γGlu = O=C(O)[C@H](CCC(=O)[*:2])N[*:1]; C14 diacid = O=C(O)CCCCCCCCCCCCC(=O)*; αMeY = C[C@](N)(Cc1ccc(O)cc1)C(=O)O; αMeL = CC(C)C[C@](C)(N)C(=O)O; Orn = NCCC[C@H](N)C(=O)O; AEEA = NCCOCCOCC(=O)O; Aib = CC(C)(N)C(=O)O

T1: human GIP receptor (human, UniProt P48546 22-466)
T1 construct: whole, on cells; also called hGIPR; human glucose-dependent insulinotropic polypeptide receptor
T1 sequence (looked up): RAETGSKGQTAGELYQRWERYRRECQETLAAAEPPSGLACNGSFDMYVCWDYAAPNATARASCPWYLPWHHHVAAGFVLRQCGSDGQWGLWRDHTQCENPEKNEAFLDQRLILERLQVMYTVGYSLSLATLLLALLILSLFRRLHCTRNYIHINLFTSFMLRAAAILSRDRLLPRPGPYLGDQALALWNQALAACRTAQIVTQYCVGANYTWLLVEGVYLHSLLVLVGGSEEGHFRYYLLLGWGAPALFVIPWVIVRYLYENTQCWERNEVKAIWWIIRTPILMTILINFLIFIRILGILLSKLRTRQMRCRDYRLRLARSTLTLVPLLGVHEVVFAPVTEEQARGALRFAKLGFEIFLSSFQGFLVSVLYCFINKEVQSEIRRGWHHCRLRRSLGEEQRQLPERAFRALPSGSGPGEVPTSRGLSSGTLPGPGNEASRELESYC

B1: Y-Aib-EGT-αMeF(2F)-TSD-4Pal-Aib-I-αMeL-LD-Orn-QAQ-Aib-Orn-FIK(PEG6-(γ-Glu)-(10-(4-carboxyphenoxy)decanoyl))-αMeY-LIK(PEG6-(γ-Glu)-(10-(4-carboxyphenoxy)decanoyl … (peptide)
peptide: YXEGTXTSDXXIXLDXQAQXXFIKXLIKGGPSSGAPPPS
modifications: Aib2, αMeF(2F)6, 4Pal10, Aib11, αMeL13, Orn16, Aib20, Orn21, K24(Z1), αMeY25, K28(Z1), C-term NH2; Z1=PEG6-(γ-Glu)-(10-(4-carboxyphenoxy)decanoyl)
B2: Y-Aib-EGT-αMeF(2F)-TSD-4Pal-Aib-I-αMeL-LD-Orn-QAQ-Aib-Orn-FIK((γ-Glu)-(2-[2-(2-Amino-ethoxy)-ethoxy]-acetyl)2-(γ-Glu)-CO-(CH2)12-CO2H)-αMeY-LIK((γ-Glu)-(2-[2-(2 … (peptide)
peptide: B1 peptide
modifications: Aib2, αMeF(2F)6, 4Pal10, Aib11, αMeL13, Orn16, Aib20, Orn21, K24(Z1), αMeY25, K28(Z1), C-term NH2; Z1=(γ-Glu)-AEEA2-(γ-Glu)-CO-(CH2)12-CO2H
B3: Y-Aib-EGT-αMeF(2F)-TSD-4Pal-Aib-I-αMeL-LD-Orn-QAQ-Aib-Orn-FIK(((2-[2-(2-Amino-ethoxy)-ethoxy]-acetyl)2--Trx-(γ-Glu)-CO-(CH2)12-CO2H)-αMeY-LIK(((2-[2-(2-Amino-et … (peptide)
peptide: B1 peptide
modifications: Aib2, αMeF(2F)6, 4Pal10, Aib11, αMeL13, Orn16, Aib20, Orn21, K24(Z1), αMeY25, K28(Z1), C-term NH2; Z1=AEEA2-Trx-(γ-Glu)-CO-(CH2)12-CO2H
B4: Y-Aib-EGT-αMeF(2F)-TSD-4Pal-Aib-I-αMeL-LD-Orn-QAQ-Aib-Orn-FIK(PEG6-(γ-Glu)-CO-(CH2)12-CO2H)-αMeY-LIK(PEG6-(γ-Glu)-CO-(CH2)12-CO2H)GGPSSGAPPPS-NH2 (peptide)
peptide: B1 peptide
modifications: Aib2, αMeF(2F)6, 4Pal10, Aib11, αMeL13, Orn16, Aib20, Orn21, K24(Z1), αMeY25, K28(Z1), C-term NH2; Z1=PEG6-(γ-Glu)-CO-(CH2)12-CO2H
B5: Y-Aib-EGT-αMeF(2F)-TSD-4Pal-Aib-I-αMeL-LD-Orn-QAQ-Aib-Orn-FIK(PEG5-(γ-Glu)-CO-(CH2)12-CO2H)-αMeY-LIK(PEG5-(γ-Glu)-CO-(CH2)12-CO2H)GGPSSGAPPPS-NH2 (peptide)
peptide: B1 peptide
modifications: Aib2, αMeF(2F)6, 4Pal10, Aib11, αMeL13, Orn16, Aib20, Orn21, K24(Z1), αMeY25, K28(Z1), C-term NH2; Z1=PEG5-(γ-Glu)-CO-(CH2)12-CO2H
B6: Y-Aib-EGT-αMeF(2F)-TSD-4Pal-Aib-I-αMeL-LD-Orn-QAQ-Aib-Orn-FIK(((2-[2-(2-Amino-ethoxy)-ethoxy]-acetyl)-Trx-(γ-Glu)-CO-(CH2)12-CO2H)-αMeY-LIK(((2-[2-(2-Amino-etho … (peptide)
peptide: B1 peptide
modifications: Aib2, αMeF(2F)6, 4Pal10, Aib11, αMeL13, Orn16, Aib20, Orn21, K24(Z1), αMeY25, K28(Z1), C-term NH2; Z1=AEEA-Trx-(γ-Glu)-CO-(CH2)12-CO2H
B7: Y-Aib-EGT-αMeF(2F)-TSD-4Pal-Aib-I-αMeL-LD-Orn-QAQ-Aib-Orn-FIK(PEG3-(γ-Glu)-CO-(CH2)12-CO2H)-αMeY-LIK(PEG3-(γ-Glu)-CO-(CH2)12-CO2H)GGPSSGAPPPS-NH2 (peptide)
peptide: B1 peptide
modifications: Aib2, αMeF(2F)6, 4Pal10, Aib11, αMeL13, Orn16, Aib20, Orn21, K24(Z1), αMeY25, K28(Z1), C-term NH2; Z1=PEG3-(γ-Glu)-CO-(CH2)12-CO2H
B8: Y-Aib-EGT-αMeF(2F)-TSD-4Pal-Aib-I-αMeL-LD-Orn-QAQ-Aib-Orn-FIK(PEG3-(γ-Glu)-(10-(4-carboxyphenoxy)decanoyl))-αMeY-LIK(PEG3-(γ-Glu)-(10-(4-carboxyphenoxy)decanoyl … (peptide)
peptide: B1 peptide
modifications: Aib2, αMeF(2F)6, 4Pal10, Aib11, αMeL13, Orn16, Aib20, Orn21, K24(Z1), αMeY25, K28(Z1), C-term NH2; Z1=PEG3-(γ-Glu)-(10-(4-carboxyphenoxy)decanoyl)
B9: Y-Aib-EGT-αMeF(2F)-TSD-4Pal-Aib-I-αMeL-LD-Orn-QAQ-Aib-Orn-FIK(PEG4-(γ-Glu)-CO-(CH2)12-CO2H)-αMeY-LIK(PEG4-(γ-Glu)-CO-(CH2)12-CO2H)GGPSSGAPPPS-NH2 (peptide)
peptide: B1 peptide
modifications: Aib2, αMeF(2F)6, 4Pal10, Aib11, αMeL13, Orn16, Aib20, Orn21, K24(Z1), αMeY25, K28(Z1), C-term NH2; Z1=PEG4-(γ-Glu)-CO-(CH2)12-CO2H
B10: Y-Aib-EGT-αMeF(2F)-TSDY-Aib-I-αMeL-LD-Orn-QAQ-Aib-Orn-FIK((2-[2-(2-Amino-ethoxy)-ethoxy]-acetyl)2-(γ-Glu)2-CO-(CH2)12-CO2H)-αMeY-LIK((2-[2-(2-Amino-ethoxy)-etho … (peptide)
peptide: B1 peptide with X10Y
modifications: Aib2, αMeF(2F)6, Aib11, αMeL13, Orn16, Aib20, Orn21, K24(Z1), αMeY25, K28(Z1), C-term NH2; Z1=AEEA2-(γ-Glu)2-CO-(CH2)12-CO2H
B11: Y-Aib-EGT-αMeF(2F)-TSD-4Pal-Aib-I-αMeL-LD-Orn-QAQ-Aib-Orn-FIK((2-[2-(2-Amino-ethoxy)-ethoxy]-acetyl)3-(γ-Glu)-CO-(CH2)12-CO2H)-αMeY-LIK((2-[2-(2-Amino-ethoxy)-e … (peptide)
peptide: B1 peptide
modifications: Aib2, αMeF(2F)6, 4Pal10, Aib11, αMeL13, Orn16, Aib20, Orn21, K24(Z1), αMeY25, K28(Z1), C-term NH2; Z1=AEEA3-(γ-Glu)-CO-(CH2)12-CO2H
B12: Y-Aib-EGT-αMeF(2F)-TSD-4Pal-Aib-I-αMeL-LD-Orn-QAQ-Aib-EFIK((2-[2-(2-Amino-ethoxy)-ethoxy]-acetyl)3-(γ-Glu)-(10-(4-carboxyphenoxy)decanoyl)-αMeY-LIK((2-[2-(2-Ami … (peptide)
peptide: B1 peptide with X21E
modifications: Aib2, αMeF(2F)6, 4Pal10, Aib11, αMeL13, Orn16, Aib20, K24(Z1), αMeY25, K28(Z1), C-term NH2; Z1=AEEA3-(γ-Glu)-(10-(4-carboxyphenoxy)decanoyl)
B13: Y-Aib-EGT-αMeF(2F)-TSDV-Aib-I-αMeL-LD-Orn … (peptide)
peptide: Y[Aib]EGT[αMePhe(2-F)]TSDV[Aib]I[αMeL]LD[Orn]QAQ[Aib][Orn]FIK([AEEA-AEEA-γGlu-C14 diacid])[αMeY]LIK([AEEA-AEEA-γGlu-C14 diacid])GGPSSGAPPPS-NH2
modifications: N-terminus assumed
SMILES: CC[C@H](C)[C@H](NC(=O)[C@H](CC(C)C)NC(=O)[C@](C)(Cc1ccc(O)cc1)NC(=O)[C@H](CCCCNC(=O)COCCOCCNC(=O)COCCOCCNC(=O)CC[C@H](NC(=O)CCCCCCCCCCCCC(=O)O)C(=O)O)NC(=O)[C@@H](NC(=O)[C@H](Cc1ccccc1)NC(=O)[C@H](CCCN)NC(=O)C(C)(C)NC(=O)[C@H](CCC(N)=O)NC(=O)[C@H](C)NC(=O)[C@H](CCC(N)=O)NC(=O)[C@H](CCCN)NC(=O)[C@H](CC(=O)O)NC(=O)[C@H](CC(C)C)NC(=O)[C@](C)(CC(C)C)NC(=O)[C@@H](NC(=O)C(C)(C)NC(=O)[C@@H](NC(=O)[C@H](CC(=O)O)NC(=O)[C@H](CO)NC(=O)[C@@H](NC(=O)[C@](C)(Cc1ccccc1F)NC(=O)[C@@H](NC(=O)CNC(=O)[C@H](CCC(=O)O)NC(=O)C(C)(C)NC(=O)[C@@H](N)Cc1ccc(O)cc1)[C@@H](C)O)[C@@H](C)O)C(C)C)[C@@H](C)CC)[C@@H](C)CC)C(=O)N[C@@H](CCCCNC(=O)COCCOCCNC(=O)COCCOCCNC(=O)CC[C@H](NC(=O)CCCCCCCCCCCCC(=O)O)C(=O)O)C(=O)NCC(=O)NCC(=O)N1CCC[C@H]1C(=O)N[C@@H](CO)C(=O)N[C@@H](CO)C(=O)NCC(=O)N[C@@H](C)C(=O)N1CCC[C@H]1C(=O)N1CCC[C@H]1C(=O)N1CCC[C@H]1C(=O)N[C@@H](CO)C(N)=O
B14: Y-Aib-EGT-αMeF(2F)-TSDY-Aib-I-αMeL-LD-Orn-IAQ-Aib-Orn-FIK((2-[2-(2-Amino-ethoxy)-ethoxy]-acetyl)3-(γ-Glu)--(10-(4-carboxyphenoxy)decanoyl))-αMeY-LIK((2-[2-(2-Am … (peptide)
peptide: B1 peptide with X10Y, Q17I
modifications: Aib2, αMeF(2F)6, Aib11, αMeL13, Orn16, Aib20, Orn21, K24(Z1), αMeY25, K28(Z1), C-term NH2; Z1=AEEA3-(γ-Glu)-(10-(4-carboxyphenoxy)decanoyl)
B15: Y-Aib-EGT-αMeF(2F)-TSDY-Aib-I-αMeL-LD-Orn-IAQ-Aib-Orn-FIK((2-[2-(2-Amino-ethoxy)-ethoxy]-acetyl)3-(γ-Glu)-CO-(CH2)12-CO2H)-αMeY-LIK((2-[2-(2-Amino-ethoxy)-ethox … (peptide)
peptide: B1 peptide with X10Y, Q17I
modifications: Aib2, αMeF(2F)6, Aib11, αMeL13, Orn16, Aib20, Orn21, K24(Z1), αMeY25, K28(Z1), C-term NH2; Z1=AEEA3-(γ-Glu)-CO-(CH2)12-CO2H

Assays:
human GLP-1 receptor = molecular target: T2, human GLP-1 receptor (human, UniProt P43220 24-463); assay: SPA competition vs [125I]-GLP-1, hGLP-1R membranes
T2 construct: whole, on cells; also called hGLP-1R; human glucagon-like peptide-1 receptor
In short: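 Competition binding in 25 mM HEPES pH 7.4, 2.5 mM CaCl₂, 1 mM MgCl₂, 0.1% bacitracin, 0.003% TWEEN-20, EDTA-free protease inhibitors. IC₅₀ from four-parameter nonlinear fit; Kᵢ given as geometric mean ± SEM, n = independent replicates on different days.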

human GIP receptor = molecular target: T1, human GIP receptor; assay: SPA competition vs [125I]-GIP, hGIPR membranes
human glucagon receptor = molecular target: T3, human glucagon receptor (human, UniProt P47871 26-477); assay: SPA competition vs [125I]-Gcg, hGcgR membranes
T3 construct: whole, on cells; also called hGCGR; hGcgR
T3 sequence (P47871 26-477): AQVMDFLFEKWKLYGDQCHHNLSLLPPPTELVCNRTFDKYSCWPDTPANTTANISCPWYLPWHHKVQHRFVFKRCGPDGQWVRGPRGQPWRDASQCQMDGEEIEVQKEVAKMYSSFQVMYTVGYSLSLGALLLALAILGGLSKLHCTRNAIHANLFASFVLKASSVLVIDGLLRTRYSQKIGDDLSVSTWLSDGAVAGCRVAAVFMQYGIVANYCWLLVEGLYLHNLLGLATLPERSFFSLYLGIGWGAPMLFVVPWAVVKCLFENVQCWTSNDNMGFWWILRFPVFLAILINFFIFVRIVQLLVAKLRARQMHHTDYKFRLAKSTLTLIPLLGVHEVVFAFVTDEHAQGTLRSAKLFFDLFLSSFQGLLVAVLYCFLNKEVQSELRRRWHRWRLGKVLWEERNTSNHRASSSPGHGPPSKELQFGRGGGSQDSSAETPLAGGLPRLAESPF

Row | Binder | Ki (human GLP-1 receptor) [nM] | Ki (human GIP receptor) [nM] | Ki (human glucagon receptor) [nM]
1 | B1 | 0.0943 | 0.0291 | 269
2 | B2 | 0.254 | 0.0277 | 273
3 | B3 | 0.121 | 0.0346 | 945
4 | B4 | 0.2 | 0.0199 | 342
5 | B5 | 0.381 | 0.0486 | 208
6 | B6 | 0.254 | 0.0376 | 258
7 | B7 | 0.266 | 0.0232 | 170
8 | B8 | 0.125 | 0.0102 | 87.5
9 | B9 | 0.252 | 0.0419 | 351
10 | B10 | 0.307 | 0.0368 | 88.5
11 | B11 | 0.226 | 0.0351 | 605
12 | B12 | 0.352 | 0.0261 | 753
13 | B13 | 0.367 | 0.0314 | 116
14 | B14 | 0.326 | 0.0266 | 20.1
15 | B15 | 0.407 | 0.0406 | 49.7
